In series [1] the target is wt GLP-1 mimetibody construct (GLP-1 MMB), IgG1 scaffold (UniProt P01275).
The target of the next series is GLP-1 peptide (UniProt P01275).
For series [2], the target named is GLP-1 receptor on Rinm cells. Briefly: cell-based or functional assay.

Sequence of wt GLP-1 mimetibody construct (GLP-1 MMB), IgG1 scaffold (P01275 whole entry, looked up): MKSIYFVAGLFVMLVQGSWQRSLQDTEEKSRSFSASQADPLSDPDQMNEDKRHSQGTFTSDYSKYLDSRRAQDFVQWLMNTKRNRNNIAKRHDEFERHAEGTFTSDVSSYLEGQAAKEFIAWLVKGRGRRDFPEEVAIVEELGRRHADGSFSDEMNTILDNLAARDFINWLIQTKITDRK
Sequence of GLP-1 peptide (P01275 98-127): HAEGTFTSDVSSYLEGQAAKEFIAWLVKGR

DPP-IV (R&D Systems): in series [1], the “DPP-IV cleavage assay (intact MMB by GLP-1 Active ELISA)” value was “The GLP-1 MMB was significantly more resistant to cleavage by DPP-IV, relative to the GLP-1 peptide”. For the same substance, in the series with GLP-1 peptide, the “DPP-IV cleavage assay (intact peptide by GLP-1 Active ELISA)” value is “The GLP-1 MMB was significantly more resistant to cleavage by DPP-IV, relative to the GLP-1 peptide”.
“GLP-1 peptide (from UniProt P01275 98-127)” returned a concentration dependent cAMP activity, EC50 (Rinm cells) in series [2] of 0.4 nM.
On the same count and under the same terms, the value for “wt GLP-1 mimetibody construct (GLP-1 MMB), IgG1 scaffold (from UniProt P01275 98-128) (Fc fusion)” was 11 nM.

The values above are taken from US20090098108A1.
